Assay results reported in IntAct's records for PubMed 29039417.

B1: BBSome complex member BBS5 (Homo sapiens), Q8N3I7 (parent)
chain: MSVLDALWEDRDVRFDLSAQQMKTRPGEVLIDCLDSIEDTKGNNGDRGRLLVTNLRILWHSLALSRVNVSVGYNCILNITTRTANSKLRGQTEALYILTKCNSTRFEFIFTNLVPGSPRLFTSVMAVHRAYETSKMYRDFKLRSALIQNKQLRLLPQEHVYDKINGVWNLSSDQGNLGTFFITNVRIVWHANMNDSFNVSIPYLQIRSIKIRDSKFGLALVIESSQQSGGYVLGFKIDPVEKLQESVKEINSLHKVYSASPIFGVDYEMEEKPQPLEALTVEQIQDDVEIDSDGHTDAFVAYFADGNKQQDREPVFSEELGLAIEKLKDGFTLQGLWEVMS
partner: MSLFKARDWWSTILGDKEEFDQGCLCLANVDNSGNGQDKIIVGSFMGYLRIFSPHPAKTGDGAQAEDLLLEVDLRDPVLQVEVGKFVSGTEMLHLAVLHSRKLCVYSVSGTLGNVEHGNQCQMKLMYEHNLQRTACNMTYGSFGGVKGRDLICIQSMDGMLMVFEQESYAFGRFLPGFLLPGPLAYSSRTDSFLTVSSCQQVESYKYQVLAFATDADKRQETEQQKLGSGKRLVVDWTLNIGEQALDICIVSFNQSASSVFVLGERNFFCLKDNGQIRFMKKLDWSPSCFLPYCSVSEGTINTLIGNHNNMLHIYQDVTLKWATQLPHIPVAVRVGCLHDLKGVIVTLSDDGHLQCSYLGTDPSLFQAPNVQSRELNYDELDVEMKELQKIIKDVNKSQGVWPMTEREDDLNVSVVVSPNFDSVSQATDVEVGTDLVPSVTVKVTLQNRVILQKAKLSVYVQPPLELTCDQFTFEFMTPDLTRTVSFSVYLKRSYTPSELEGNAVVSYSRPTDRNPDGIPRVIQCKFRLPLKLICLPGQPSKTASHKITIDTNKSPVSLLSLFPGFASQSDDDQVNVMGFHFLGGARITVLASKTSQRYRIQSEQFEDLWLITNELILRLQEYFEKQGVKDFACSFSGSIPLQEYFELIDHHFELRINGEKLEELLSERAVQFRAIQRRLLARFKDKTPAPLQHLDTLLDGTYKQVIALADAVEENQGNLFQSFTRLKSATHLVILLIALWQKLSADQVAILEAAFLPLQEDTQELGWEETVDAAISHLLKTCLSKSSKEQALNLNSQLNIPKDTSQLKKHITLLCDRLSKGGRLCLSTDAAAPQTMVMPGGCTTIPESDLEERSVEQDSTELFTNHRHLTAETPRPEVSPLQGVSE
B2: BBSome complex member BBS2 (Homo sapiens), Q9BXC9 (parent)
chain: MLLPVFTLKLRHKISPRMVAIGRYDGTHPCLAAATQTGKVFIHNPHTRNQHVSASRVFQSPLESDVSLLSINQAVSCLTAGVLNPELGYDALLVGTQTNLLAYDVYNNSDLFYREVADGANAIVLGTLGDISSPLAIIGGNCALQGFNHEGSDLFWTVTGDNVNSLALCDFDGDGKKELLVGSEDFDIRVFKEDEIVAEMTETEIVTSLCPMYGSRFGYALSNGTVGVYDKTSRYWRIKSKNHAMSIHAFDLNSDGVNELITGWSNGKVDARSDRTGEVIFKDNFSSAIAGVVEGDYRMDGHIQLICCSVDGEIRGYLPGTAEMRGNLMDTSAEQDLIRELSQKKQNLLLELRNYEENAKAELASPLNEADGHRGIIPANTRLHTTLSVSLGNETQTAHTELRISTSNDTIIRAVLIFAEGIFTGESHVVHPSIHNLSSSICIPIVPPKDVPVDLHLKAFVGYRSSTQFHVFESTRQLPRFSMYALTSLDPASEPISYVNFTIAERAQRVVVWLGQNFLLPEDTHIQNAPFQVCFTSLRNGGHLHIKIKLSGEITINTDDIDLAGDIIQSMASFFAIEDLQVEADFPVYFEELRKVLVKVDEYHSVHQKLSADMADHSNLIRSLLVGAEDARLMRDMKTMKSRYMELYDLNRDLLNGYKIRCNNHTELLGNLKAVNQAIQRAGRLRVGKPKNQVITACRDAIRSNNINTLFKIMRVGTASS
partner: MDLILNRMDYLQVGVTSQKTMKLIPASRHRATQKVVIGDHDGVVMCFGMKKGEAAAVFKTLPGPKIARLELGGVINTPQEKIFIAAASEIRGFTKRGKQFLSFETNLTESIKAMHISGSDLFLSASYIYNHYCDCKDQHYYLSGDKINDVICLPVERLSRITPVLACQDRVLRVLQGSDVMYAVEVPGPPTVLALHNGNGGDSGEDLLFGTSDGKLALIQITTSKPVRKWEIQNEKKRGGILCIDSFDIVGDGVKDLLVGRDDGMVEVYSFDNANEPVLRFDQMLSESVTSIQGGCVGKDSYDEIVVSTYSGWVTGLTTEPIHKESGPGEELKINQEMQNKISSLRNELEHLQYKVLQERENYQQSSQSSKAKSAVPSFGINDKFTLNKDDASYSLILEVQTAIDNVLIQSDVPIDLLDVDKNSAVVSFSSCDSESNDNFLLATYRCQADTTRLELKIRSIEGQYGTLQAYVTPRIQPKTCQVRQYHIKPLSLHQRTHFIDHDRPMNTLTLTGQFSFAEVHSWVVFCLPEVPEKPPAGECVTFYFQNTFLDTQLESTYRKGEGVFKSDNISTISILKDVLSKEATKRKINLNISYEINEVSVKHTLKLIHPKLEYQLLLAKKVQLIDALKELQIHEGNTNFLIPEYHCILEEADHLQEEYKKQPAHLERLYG

Variants of: B1
Settings: with pthb1_human BBS9, Q3SYG4

effect of a mutation on the interaction | Variant
with no effect | E9A
with no effect | E9K
with no effect | M1K
with no effect | M1A
with no effect | M1E
disrupting interaction strength | L17A
disrupting interaction strength | L17E
disrupting interaction strength | L17K
disrupting interaction strength | L17R
with no effect | S18A
with no effect | L4E
with no effect | L4K
with no effect | L4A
with no effect | V3E
with no effect | V3K
with no effect | V3A
with no effect | D12E
with no effect | D12A
disrupting interaction strength | D12K
with no effect | A6E
with no effect | A6K
with no effect | S2K
with no effect | S2E
with no effect | S2A
disrupting interaction strength | D16S
with no effect | D16K
with no effect | D16A

effect of a mutation on the interaction | Variant
with no effect | D16E
disrupting interaction strength | R14E
with no effect | R14A
with no effect | R14K
with no effect | W8K
with no effect | W8A
with no effect | W8E
with no effect | L7E
with no effect | L7K
with no effect | L7A
disrupting interaction strength | R11A
with no effect | R11K
disrupting interaction strength | R11E
disrupting interaction strength | R11W
disrupting interaction strength | V13K
disrupting interaction strength | V13A
disrupting interaction strength | V13E
disrupting interaction strength | F15A
disrupting interaction strength | F15E
with no effect | F15K
disrupting interaction strength | F15L
with no effect | D5A
with no effect | D5E
with no effect | D5K
with no effect | D10K
with no effect | D10E
with no effect | D10A

Variants of: B2
Settings: with BBS7, Q8IWZ6-2

effect of a mutation on the interaction | Variant
with no effect | S704E
with no effect | S704A
with no effect | S704K
with no effect | Q680A
with no effect | Q680E
with no effect | Q680K
with no effect | R715A
with no effect | R715K
with no effect | R715E
with no effect | S721A
with no effect | S721E
with no effect | S721K
with no effect | K691E
with no effect | K691A
with no effect | V687E
with no effect | V687K
with no effect | V687A
with no effect | C698E
with no effect | C698K
with no effect | C698A
with no effect | A682E
with no effect | A682K
with no effect | K689E
with no effect | K689A

effect of a mutation on the interaction | Variant
with no effect | D700A
with no effect | D700E
with no effect | D700K
with no effect | P690A
with no effect | P690E
with no effect | P690K
with no effect | S720A
with no effect | S720K
with no effect | S720E
with no effect | A719E
with no effect | A719K
with no effect | A697K
with no effect | A697E
with no effect | Q693A
with no effect | Q693K
with no effect | Q693E
disrupting interaction strength | G688R
disrupting interaction strength | G688A
disrupting interaction strength | G688E
disrupting interaction strength | G688K
with no effect | T709K
with no effect | T709A
with no effect | T709E
with no effect | I707K

effect of a mutation on the interaction | Variant
with no effect | I707E
with no effect | I707A
with no effect | G683E
with no effect | G683A
with no effect | G683K
with no effect | K712E
with no effect | K712A
with no effect | T718K
with no effect | T718A
with no effect | T718E
with no effect | I713A
with no effect | I713K
with no effect | I713E
with no effect | M714A
with no effect | M714E
with no effect | M714K
with no effect | T696E
with no effect | T696A
with no effect | T696K
disrupting interaction strength | R686A
with no effect | R686K
disrupting interaction strength | R686E
with no effect | G717K
with no effect | G717A

effect of a mutation on the interaction | Variant
with no effect | G717E
with no effect | N692E
with no effect | N692A
with no effect | N692K
with no effect | I702E
with no effect | I702K
with no effect | I702A
with no effect | V694A
with no effect | V694K
with no effect | V694E
with no effect | N705E
with no effect | N705A
with no effect | N705K
with no effect | A701K
with no effect | A701E
with no effect | R703A
with no effect | R703K
with no effect | R703E
with no effect | N708E
with no effect | N708K
with no effect | N708A
with no effect | R684K
with no effect | R684E
with no effect | R684A

effect of a mutation on the interaction | Variant
with no effect | V716K
with no effect | V716E
with no effect | V716A
with no effect | N706E
with no effect | N706A
with no effect | N706K
with no effect | F711K
with no effect | F711A
with no effect | F711E
with no effect | R681E
with no effect | R681K
with no effect | R681A
with no effect | L685K
disrupting interaction strength | L685A
disrupting interaction strength | L685E
with no effect | I695A
with no effect | I695E
with no effect | I695K
with no effect | R699E
with no effect | R699A
with no effect | R699K
with no effect | L710E
with no effect | L710A
with no effect | L710K

Variants of: B2
Settings: with BBS7, Q8IWZ6-2
Remark: another data set of the same source

effect of a mutation on the interaction | Variant
disrupting interaction strength | S365R
